Reference: IntAct's records for PubMed 31515488

B1: Zinc finger protein Aiolos (Homo sapiens), Q9UKT9 (parent)
chain: MEDIQTNAELKSTQEQSVPAESAAVLNDYSLTKSHEMENVDSGEGPANEDEDIGDDSMKVKDEYSERDENVLKSEPMGNAEEPEIPYSYSREYNEYENIKLERHVVSFDSSRPTSGKMNCDVCGLSCISFNVLMVHKRSHTGERPFQCNQCGASFTQKGNLLRHIKLHTGEKPFKCHLCNYACQRRDALTGHLRTHSVEKPYKCEFCGRSYKQRSSLEEHKERCRTFLQSTDPGDTASAEARHIKAEMGSERALVLDRLASNVAKRKSSMPQKFIGEKRHCFDVNYNSSYMYEKESELIQTRMMDQAINNAISYLGAEALRPLVQTPPAPTSEMVPVISSMYPIALTRAEMSNGAPQELEKKSIHLPEKSVPSERGLSPNNSGHDSTDTDSNHEERQNHIYQQNHMVLSRARNGMPLLKEVPRSYELLKPPPICPRDSVKVINKEGEVMDVYRCDHCRVLFLDYVMFTIHMGCHGFRDPFECNMCGYRSHDRYEFSSHIARGEHRALLK
partner: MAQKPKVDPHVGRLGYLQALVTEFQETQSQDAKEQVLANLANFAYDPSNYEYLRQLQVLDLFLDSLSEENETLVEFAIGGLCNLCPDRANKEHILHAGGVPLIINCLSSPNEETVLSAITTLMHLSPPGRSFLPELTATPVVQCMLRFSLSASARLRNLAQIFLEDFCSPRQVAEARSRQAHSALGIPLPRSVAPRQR
B2: Ensconsin (Homo sapiens), Q14244 (parent)
chain: MAELGAGGDGHRGGDGAVRSETAPDSYKVQDKKNASSRPASAISGQNNNHSGNKPDPPPVLRVDDRQRLARERREEREKQLAAREIVWLEREERARQHYEKHLEERKKRLEEQRQKEERRRAAVEEKRRQRLEEDKERHEAVVRRTMERSQKPKQKHNRWSWGGSLHGSPSIHSADPDRRSVSTMNLSKYVDPVISKRLSSSSATLLNSPDRARRLQLSPWESSVVNRLLTPTHSFLARSKSTAALSGEAASCSPIIMPYKAAHSRNSMDRPKLFVTPPEGSSRRRIIHGTASYKKERERENVLFLTSGTRRAVSPSNPKARQPARSRLWLPSKSLPHLPGTPRPTSSLPPGSVKAAPAQVRPPSPGNIRPVKREVKVEPEKKDPEKEPQKVANEPSLKGRAPLVKVEEATVEERTPAEPEVGPAAPAMAPAPASAPAPASAPAPAPVPTPAMVSAPSSTVNASASVKTSAGTTDPEEATRLLAEKRRLAREQREKEERERREQEELERQKREELAQRVAEERTTRREEESRRLEAEQAREKEEQLQRQAEERALREREEAERAQRQKEEEARVREEAERVRQEREKHFQREEQERLERKKRLEEIMKRTRRTEATDKKTSDQRNGDIAKGALTGGTEVSALPCTTNAPGNGKPVGSPHVVTSHQSKVTVESTPDLEKQPNENGVSVQNENFEEIINLPIGSKPSRLDVTNSESPEIPLNPILAFDDEGTLGPLPQVDGVQTQQTAEVI
B3: TNF receptor-associated factor 2 (Homo sapiens), Q12933 (parent)
chain: MAAASVTPPGSLELLQPGFSKTLLGTKLEAKYLCSACRNVLRRPFQAQCGHRYCSFCLASILSSGPQNCAACVHEGIYEEGISILESSSAFPDNAARREVESLPAVCPSDGCTWKGTLKEYESCHEGRCPLMLTECPACKGLVRLGEKERHLEHECPERSLSCRHCRAPCCGADVKAHHEVCPKFPLTCDGCGKKKIPREKFQDHVKTCGKCRVPCRFHAIGCLETVEGEKQQEHEVQWLREHLAMLLSSVLEAKPLLGDQSHAGSELLQRCESLEKKTATFENIVCVLNREVERVAMTAEACSRQHRLDQDKIEALSSKVQQLERSIGLKDLAMADLEQKVLEMEASTYDGVFIWKISDFARKRQEAVAGRIPAIFSPAFYTSRYGYKMCLRIYLNGDGTGRGTHLSLFFVVMKGPNDALLRWPFNQKVTLMLLDQNNREHVIDAFRPDVTSSSFQRPVNDMNIASGCPLFCPVSKMEAKNSYVRDDAIFIKAIVDLTGL
B4: Syntaxin-binding protein 4 (Homo sapiens), Q6ZWJ1 (parent)
chain: MNKNTSTVVSPSLLEKDPAFQMITIAKETGLGLKVLGGINRNEGPLVYIQEIIPGGDCYKDGRLKPGDQLVSVNKESMIGVSFEEAKSIITGAKLRLESAWEIAFIRQKSDNIQPENLSCTSLIEASGEYGPQASTLSLFSSPPEILIPKTSSTPKTNNDILSSCEIKTGYNKTVQIPITSENSTVGLSNTDVASAWTENYGLQEKISLNPSVRFKAEKLEMALNYLGIQPTKEQHQALRQQVQADSKGTVSFGDFVQVARNLFCLQLDEVNVGAHEISNILDSQLLPCDSSEADEMERLKCERDDALKEVNTLKEKLLESDKQRKQLTEELQNVKQEAKAVVEETRALRSRIHLAEAAQRQAHGMEMDYEEVIRLLEAKITELKAQLADYSDQNKESVQDLKKRIMVLDCQLRKSEMARKTFEASTEKLLHFVEAIQEVFSDNSTPLSNLSERRAVLASQTSLTPLGRNGRSIPATLALESKELVKSVRALLDMDCLPYGWEEAYTADGIKYFINHVTQTTSWIHPVMSVLNLSRSEENEEDCSRELPNQKS
partner: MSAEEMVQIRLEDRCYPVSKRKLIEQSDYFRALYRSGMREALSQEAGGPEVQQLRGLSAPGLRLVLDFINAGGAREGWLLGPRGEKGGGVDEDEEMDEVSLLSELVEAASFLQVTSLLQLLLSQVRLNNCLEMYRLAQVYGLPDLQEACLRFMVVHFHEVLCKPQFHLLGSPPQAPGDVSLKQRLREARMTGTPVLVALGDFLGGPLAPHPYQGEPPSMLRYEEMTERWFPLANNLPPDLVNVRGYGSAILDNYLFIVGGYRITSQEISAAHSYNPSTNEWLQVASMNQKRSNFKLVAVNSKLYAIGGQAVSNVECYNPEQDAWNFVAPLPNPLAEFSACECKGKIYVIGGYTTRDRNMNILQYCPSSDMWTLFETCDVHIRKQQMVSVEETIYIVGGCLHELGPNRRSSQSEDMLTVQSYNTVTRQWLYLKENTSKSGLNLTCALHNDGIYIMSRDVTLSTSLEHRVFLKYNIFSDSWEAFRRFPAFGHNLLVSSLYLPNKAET
B5: Ligand of Numb protein X 2 (Homo sapiens), Q8N448 (parent)
chain: MGTTSDEMVSVEQTSSSSLNPLCFECGQQHWTRENHLYNYQNEVDDDLVCHICLQPLLQPLDTPCGHTFCYKCLRNFLQEKDFCPLDRKRLHFKLCKKSSILVHKLLDKLLVLCPFSSVCKDVMQRCDLEAHLKNRCPGASHRRVALERRKTSRTQAEIENENGPTLLDPAGTLSPEADCLGTGAVPVERHLTSASLSTWSEEPGLDNPAFEESAGADTTQQPLSLPEGEITTIEIHRSNPYIQLGISIVGGNETPLINIVIQEVYRDGVIARDGRLLAGDQILQVNNYNISNVSHNYARAVLSQPCNTLHLTVLRERRFGNRAHNHSDSNSPREEIFQVALHKRDSGEQLGIKLVRRTDEPGVFILDLLEGGLAAQDGRLSSNDRVLAINGHDLKYGTPELAAQIIQASGERVNLTIARPGKPQPGNTIREAGNHSSSSQHHTPPPYYSRPSSHKDLTQCVTCQEKHITVKKEPHESLGMTVAGGRGSKSGELPIFVTSVPPHGCLARDGRIKRGDVLLNINGIDLTNLSHSEAVAMLKASAASPAVALKALEVQIVEEATQNAEEQPSTFSENEYDASWSPSWVMWLGLPSTLHSCHDIVLRRSYLGSWGFSIVGGYEENHTNQPFFIKTIVLGTPAYYDGRLKCGDMIVAVNGLSTVGMSHSALVPMLKEQRNKVTLTVICWPGSLV
partner: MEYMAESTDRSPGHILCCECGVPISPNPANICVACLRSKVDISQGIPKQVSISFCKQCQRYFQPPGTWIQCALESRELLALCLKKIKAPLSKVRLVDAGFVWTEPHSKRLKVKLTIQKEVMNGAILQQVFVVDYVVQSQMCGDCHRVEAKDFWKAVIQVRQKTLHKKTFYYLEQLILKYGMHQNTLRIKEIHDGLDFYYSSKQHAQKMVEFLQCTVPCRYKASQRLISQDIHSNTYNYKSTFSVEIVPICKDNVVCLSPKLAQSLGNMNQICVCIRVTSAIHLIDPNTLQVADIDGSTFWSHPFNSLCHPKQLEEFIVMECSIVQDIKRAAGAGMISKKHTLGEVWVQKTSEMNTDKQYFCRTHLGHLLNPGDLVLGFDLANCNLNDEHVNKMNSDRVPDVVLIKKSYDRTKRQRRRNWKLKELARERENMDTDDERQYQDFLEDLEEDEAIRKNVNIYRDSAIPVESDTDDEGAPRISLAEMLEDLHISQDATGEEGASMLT
B6: TBC1 domain family member 22B (Homo sapiens), Q9NU19 (parent)
chain: MAAENSKQFWKRSAKLPGSIQPVYGAQHPPLDPRLTKNFIKERSKVNTVPLKNKKASSFHEFARNTSDAWDIGDDEEEDFSSPSFQTLNSKVALATAAQVLENHSKLRVKPERSQSTTSDVPANYKVIKSSSDAQLSRNSSDTCLRNPLHKQQSLPLRPIIPLVARISDQNASGAPPMTVREKTRLEKFRQLLSSQNTDLDELRKCSWPGVPREVRPITWRLLSGYLPANTERRKLTLQRKREEYFGFIEQYYDSRNEEHHQDTYRQIHIDIPRTNPLIPLFQQPLVQEIFERILFIWAIRHPASGYVQGINDLVTPFFVVFLSEYVEEDVENFDVTNLSQDMLRSIEADSFWCMSKLLDGIQDNYTFAQPGIQKKVKALEELVSRIDEQVHNHFRRYEVEYLQFAFRWMNNLLMRELPLRCTIRLWDTYQSEPEGFSHFHLYVCAAFLIKWRKEILDEEDFQGLLMLLQNLPTIHWGNEEIGLLLAEAYRLKYMFADAPNHYRR

Variants of: B1
Conditions: with armc7_human ARMC7, Q9H6L4

| effect of a mutation on the interaction | Variant |
| --- | --- |
| with no effect | A24V |
| with no effect | N119D |

Variants of: B2
Conditions: with ccdb1_human CCNDBP1, O95273
Sequence of ccdb1_human CCNDBP1, O95273 (O95273 whole entry): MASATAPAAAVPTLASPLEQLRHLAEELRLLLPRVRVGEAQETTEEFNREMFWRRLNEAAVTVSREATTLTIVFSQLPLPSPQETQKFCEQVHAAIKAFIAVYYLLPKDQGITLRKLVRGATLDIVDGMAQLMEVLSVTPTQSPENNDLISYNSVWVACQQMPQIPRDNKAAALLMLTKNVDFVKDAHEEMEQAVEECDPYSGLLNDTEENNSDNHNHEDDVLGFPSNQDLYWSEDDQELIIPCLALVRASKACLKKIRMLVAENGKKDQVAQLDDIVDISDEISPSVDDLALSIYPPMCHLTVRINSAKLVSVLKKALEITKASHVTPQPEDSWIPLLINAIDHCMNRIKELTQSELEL

| effect of a mutation on the interaction | Variant |
| --- | --- |
| with no effect | M429T |
| with no effect | P649L |

Variants of: B3
Conditions: with traf1_human TRAF1, Q13077
Sequence of traf1_human TRAF1, Q13077 (Q13077 whole entry): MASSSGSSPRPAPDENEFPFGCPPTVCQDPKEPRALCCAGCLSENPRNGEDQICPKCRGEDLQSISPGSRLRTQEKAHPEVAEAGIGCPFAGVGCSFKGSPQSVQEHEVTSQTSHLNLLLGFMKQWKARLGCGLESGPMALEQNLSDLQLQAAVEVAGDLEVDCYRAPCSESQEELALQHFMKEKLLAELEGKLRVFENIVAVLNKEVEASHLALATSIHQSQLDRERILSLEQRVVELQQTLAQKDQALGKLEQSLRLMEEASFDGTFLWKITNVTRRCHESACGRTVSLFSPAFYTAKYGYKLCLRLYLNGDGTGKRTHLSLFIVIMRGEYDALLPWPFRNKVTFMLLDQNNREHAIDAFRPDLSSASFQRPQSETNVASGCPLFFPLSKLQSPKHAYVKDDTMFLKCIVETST

| effect of a mutation on the interaction | Variant |
| --- | --- |
| with no effect | D462N |
| with no effect | D488N |

Variants of: B4
Conditions: with klh42_human KLHL42, Q9P2K6

| effect of a mutation on the interaction | Variant |
| --- | --- |
| with no effect | C120R |

Variants of: B5
Conditions: with nmd3_human NMD3, Q96D46

| effect of a mutation on the interaction | Variant |
| --- | --- |
| with no effect | T183I |
| with no effect | V145I |

Variants of: B6
Conditions: with tri23_human TRIM23, P36406
Sequence of tri23_human TRIM23, P36406 (P36406 whole entry): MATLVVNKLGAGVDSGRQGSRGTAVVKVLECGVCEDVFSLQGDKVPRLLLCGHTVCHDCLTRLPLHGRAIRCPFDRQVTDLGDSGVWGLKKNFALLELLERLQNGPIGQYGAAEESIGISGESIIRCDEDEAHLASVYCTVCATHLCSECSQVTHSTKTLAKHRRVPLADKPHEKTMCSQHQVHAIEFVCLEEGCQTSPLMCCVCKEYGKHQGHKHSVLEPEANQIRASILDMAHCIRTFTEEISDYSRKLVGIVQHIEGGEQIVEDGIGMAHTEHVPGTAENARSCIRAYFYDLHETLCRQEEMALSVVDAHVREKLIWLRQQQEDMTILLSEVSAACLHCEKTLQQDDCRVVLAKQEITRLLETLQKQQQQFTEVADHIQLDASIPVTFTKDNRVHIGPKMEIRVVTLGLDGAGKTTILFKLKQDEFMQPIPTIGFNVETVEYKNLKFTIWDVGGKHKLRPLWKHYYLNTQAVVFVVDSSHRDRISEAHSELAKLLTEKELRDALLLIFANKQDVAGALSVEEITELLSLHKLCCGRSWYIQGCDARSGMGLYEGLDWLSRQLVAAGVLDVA

| effect of a mutation on the interaction | Variant |
| --- | --- |
| with no effect | P177A |

Variants of: B6
Conditions: with ikzf3_human IKZF3, Q9UKT9

| effect of a mutation on the interaction | Variant |
| --- | --- |
| with no effect | P177A |
